Measurements as given in article PMC9110474.

Legend:
[1] = molecular target: TOM complex (translocase of the mitochondrial outer membrane), human, endogenous core complex (human (endogenous in HeLa or U2OS)) (UniProt O96008)
[2] = molecular target: TOM complex (translocase of the mitochondrial outer membrane), human, endogenous core complex (human (endogenous in HeLa or U2OS)) (UniProt O96008); experiment: native gel or EMSA; competition: mitochondria preincubated on ice for 10 min with 20 µg pSu9-DHFR-His, 1 mM methotrexate and 1 mM NADPH, depolarized, then import of radiolabeled PINK1; BN-PAGE, 700 kDa species quantified (clogger and TOM complex)

integration of radiolabeled TOM40 into the MOM of mitochondria preincubated with pSu9-DHFR, % of untreated mitochondria [1]: 60% | PINK1 association with the TOM complex left with pSu9-DHFR, % of control [2]: < 40%
Substance: pSu9-DHFR-His
